# Data from the supplement of paper PMC12042874.
# ± gives the uncertainty stated by the source.
# Assay: amyloid nucleation score (Sup35N fusion, yeast selection) (log enrichment); library NNK3; higher = more nucleation; inactive = no reads after selection
# Procedure, shortened: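 The nucleation score is the DiMSum log enrichment of output over input reads, centred on the mode score of non-aggregating sequences. Only sequences with 100 or more input reads were scored, using Illumina sequencing of input and output plasmid inserts. Psi-negative yeast expressing Sup35N fused to peptides of 20 random codons were induced 24 hours with 100 μM copper sulfate and grown 7 days at 30°C on medium lacking adenine and uracil.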
row,Substance,amyloid nucleation score
1,NGTALLKVTLAQYVGIVTLF,inactive
2,NGWLVMLYIKLTGFFP,inactive
3,NHLMTFLVWWLMIALLPHLD,inactive
4,NHLVGLNMSISMCDSLNSVF,inactive
5,NHMCSVYRWQSLERVVCKGI,inactive
6,NHNIHVNGFHFN,inactive
7,NHRSG,inactive
8,NHVILKNFFLMLQCYNFTTM,inactive
9,NIDNMSMVRILFNT,1.44 ± 0.11
10,NIIEPFKWTTTSLYNSDFYF,inactive
11,NIIYRVGSQYSL,inactive
12,NIMYLIWWILGKRHVCNPWE,-0.805 ± 1.1
13,NINIY,-0.302 ± 0.96
14,NITFISSWIMQEYTFVLCSF,1.96 ± 0.065
15,NIVISYPP,0.749 ± 0.11
16,NIYYLCSFLSWLTMG,2.36 ± 0.049
17,NKDWREVCSKLNLGSCPTPE,inactive
18,NKFMIGVRMASGTL,inactive
19,NKPCYLSSFPQCDHFFVWTD,inactive
20,NKRGNCVEKDDCFVMYEWNM,inactive

row,Substance,amyloid nucleation score
1,NKSLWGC,inactive
2,NKSWWKYVPIDDGELYMRAV,inactive
3,NKTDCETC,inactive
4,NKVTLGYMFITSLVRTSS,0.491 ± 0.15
5,NKWLDRNKG,inactive
6,NLCRVMMFSFFTLLV,1.44 ± 0.1
7,NLDYLVNLLCDYLES,-0.703 ± 1.9
8,NLFYDFFDYMVSRARGGRVC,inactive
9,NLGNVHVLLDQSEPVHCILL,inactive
10,NLGRFLFSICCASLFAGCNG,-0.245 ± 0.99
11,NLLPRCKLIDSWWSSHRLWV,-0.809 ± 1.1
12,NLLRNAVFIYCKHLNLFDAM,0.815 ± 0.12
13,NLPRKGSGWDIHDRRHPWRS,inactive
14,NLRWV,0.478 ± 0.25
15,NLSGIHIFLVSRLEWVLDNL,inactive
16,NLSLLSLVSFEVEVIQCTMR,inactive
17,NLSRRIWTHYHTQVNLIGID,inactive
18,NLSSNVLTAALK,inactive
19,NLSTFQIYDR,inactive
20,NLTFYMYIELVDLRGNAE,2.29 ± 0.056

row,Substance,amyloid nucleation score
1,NLVAMVYSLLSSNWKEVISK,-0.406 ± 0.8
2,NLWYLVMLISDFCEPRKEWY,inactive
3,NMFRRPTVCTVQEQVTEMRV,inactive
4,NMGWSSSYH,inactive
5,NMLCTSL,1.21 ± 0.11
6,NMMFILGFFNNKY,2.38 ± 0.076
7,NNIPCGMGPSSSSCNASD,inactive
8,NNLTKM,inactive
9,NNNISFEEWFPS,inactive
10,NNSSLRTEVLCFDGISQFGG,inactive
11,NNSSSMSLINKSTCCLDWSS,2.02 ± 0.063
12,NPIIKKSKLLKGHLSTCPMV,inactive
13,NPSVPTQTPVDMWACTKG,inactive
14,NPVLWVGRAF,inactive
15,NPWPAWPGTSCIRDLQTSIR,inactive
16,NQFMGRVV,inactive
17,NQLYSWWRFYGLNS,inactive
18,NRINLDSSPLKGYFLINTIT,inactive
19,NRISMFLNRT,inactive
20,NRKRFGEMNGRNYSVQGGRW,inactive
